Measurements from PMC11721464.

Target: Zika virus prM/E heterodimer of the immature virion (Zika virus strain MR-766)
Test: cryo-EM structure; immature ZIKV MR-766 virions purified from NH4Cl-treated Vero E6 cells, neutral pH (TNE buffer, pH 7.4); icosahedral symmetry enforced, 8.3 Å map; homology model of prM/E (template SPOV PDB 6ZQI) fitted and refined in real space

How did the stoichiometry N turn out when “Zika virus prM/E heterodimer of the immature virion (complex)” was run?
Its stoichiometry N is 3.
